Test [1] concerns the target T1, hVEGF (PeproTech) (human, UniProt P15692-4 27-191, limits assumed).
T1 construct: Commercial growth factor; also called ihVEGF; shVEGF
Nature of the test: immunofluorescence against hVEGF on peptide-functionalized PCL films, 1 µg/mL hVEGF.
Experimental: (§1) Samples were incubated with 1 μg/mL of VEGF (PeproTech) in 0.5% (v/v) PBS TWEEN®20 (PBST) for one hour with gentle agitation. The films were then washed three times for 10 minutes with 0.5% (v/v) PBST and then with PBS for a further 10 minutes. Next, the films were blocked for one hour with PBS containing 1% (w/v) bovine serum albumin (BSA) and subsequently washed as described above. Afterwards, the films were incubated with a primary antibody (2 μg/mL; rabbit polyclonal anti-human VEGF, PeproTech) in the blocking solution during one hour with agitation. […] Before image acquisition, the films were washed three times for 10 minutes with 1 mM PBST, rinsed three times with PBS and dried under a N2 stream. Fluorescence intensity was quantified using ImageJ.

The target of test [2] is T1, hVEGF (PeproTech). Nature of the test: immunofluorescence against hVEGF on peptide-functionalized Chondro-Gide, 1 µg/mL hVEGF.
Experimental: as §1
(§2) Both Chondro-Gide and Collagen Meniscus Implant (CMI) were incubated with 50 mM of NHS/EDC for 2 hours. […] Incubation with hVEGF, immunofluorescence staining and fluorescence quantification was performed as mentioned above for the PCL films.
For test [3], the target named is T1, hVEGF (PeproTech). Description: immunofluorescence against hVEGF on peptide-functionalized POLY-TAPE, 1 µg/mL hVEGF.
Experimental: Fluorescence intensity was quantified using ImageJ. For cell experiments, the sterile PCL films were washed three times with PBS and incubated with 0.5 μg of VEGF in 0.5% (v/v) PBST for one hour with gentle agitation. Subsequently, the films were extensively washed with PBST (0.5%) and PBS to remove any traces of the washing buffer prior to cell seeding.
Incubation with hVEGF, immunofluorescence staining and fluorescence quantification was performed as mentioned above for the PCL films.
The POLY-TAPE® was oxygen plasma treated (OPT) for 5 minutes and incubated for one hour with 1 M NaOH in order to hydrolyze the esters and expose the carboxylic acids.
Test [4] concerns the target T1, hVEGF (PeproTech). Description: immunofluorescence against hVEGF on peptide-functionalized Collagen Meniscus Implant, 1 µg/mL hVEGF.
Experimental: as §1, §2
In another test the target is hTGFB1 (Peprotech) (human, UniProt P01137 279-390). Description: cell-based or functional assay.
hTGFB1 (Peprotech), sequence (P01137 279-390 limits assumed): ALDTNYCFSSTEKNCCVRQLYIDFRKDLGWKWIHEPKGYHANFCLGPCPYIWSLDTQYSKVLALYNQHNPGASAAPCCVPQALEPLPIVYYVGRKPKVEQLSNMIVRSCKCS
The target in a further test is hBMP-2 (PeproTech) (human, UniProt P12643 283-396). Nature of the test: cell-based or functional assay.
hBMP-2 (PeproTech), sequence (P12643 283-396 limits assumed): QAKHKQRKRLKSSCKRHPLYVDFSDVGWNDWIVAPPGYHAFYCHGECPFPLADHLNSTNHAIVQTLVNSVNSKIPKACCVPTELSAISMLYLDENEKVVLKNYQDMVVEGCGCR
Another test deals with T2, endogenous BMP-2 (rat) (rat, UniProt P49001 280-393, limits assumed).
T2 construct: also called BMP-2 released during inflammation
T2 sequence (P49001 280-393 limits assumed): as the sequence (P12643 283-396 limits assumed) above
Nature of the test: immunofluorescence against BMP-2 of PCL films implanted subcutaneously in rats for 7 days.

Four molecules from US20200095341A1 (UNIVERSITEIT TWENTE, published 2020) can be followed below.

Ends that are not written are not given here.

T1 sequence (P15692 other isoform, or with tags, fused parts or gaps limits assumed): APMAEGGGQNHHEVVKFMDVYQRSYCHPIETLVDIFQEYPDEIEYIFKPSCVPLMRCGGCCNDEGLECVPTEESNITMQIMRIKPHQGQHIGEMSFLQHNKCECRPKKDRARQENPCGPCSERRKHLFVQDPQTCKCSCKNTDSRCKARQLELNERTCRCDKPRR
Text for endogenous BMP-2 (rat): Both native and functionalized PCL films were subcutaneously implanted in the back of rats, facing the fascia. Each animal, with a total of three animals per time point, was implanted with both native and functionalized film. At day 3 and day 7 after implantation, samples were harvested and used for immunofluorescence against BMP-2 and for histology. Only the samples from day 7 were used for immunofluorescence against BMP-2.

B1: VEGF-binding peptide KGSWWAPFH (peptide)
peptide: Ac-KGSWWAPFH
modifications: not fully specified (residue 1); also: lysine side chain covalently coupled to film or device
notes: also called SWWAPFH with an extra glycine and lysine at the N-termini
For B1, in the test with hVEGF (PeproTech) [1], the “fluorescence intensity, fold over non-functionalized films incubated with hVEGF” value came out at 7 fold. Further, the “fluorescence signal, fold over Chondro-Gide functionalized with NHS/EDC and incubated with hVEGF” value with hVEGF (PeproTech) [2] was 2.2 fold. Further, in the test with hVEGF (PeproTech) [3], the “fluorescence signal, fold over native POLY-TAPE with hVEGF” value worked out at 2.3 fold and the “fluorescence signal, fold over oxygen plasma treated POLY-TAPE with hVEGF” value turned out to be 1.5 fold. Further, the “fluorescence signal, fold (reference taken as native CMI incubated with hVEGF)” value with hVEGF (PeproTech) [4] turned out to be 3.3 fold.

B2: scrambled peptide KGHNLGLPS (peptide)
peptide: Ac-KGHNLGLPS-NH2
modifications: not fully specified (residue 1); also: lysine side chain covalently coupled to PCL film
In the case of B2, the “luciferase activity of TGFB1 reporter cell line (MLEC, PAI-1 promoter), fold over same films without hTGFB1 incubation” value with hTGFB1 (Peprotech) came out at 3 fold.

B3: BMP-2-binding peptide KGYPVHPST (peptide)
peptide: Ac-KGYPVHPST
modifications: not fully specified (residue 1); also: lysine side chain covalently coupled to film or tape
notes: also called YPVHPST with an extra glycine and lysine at the N-termini
On to B3, for which, in the test with hBMP-2 (PeproTech), the “ALP produced by C2C12 after 7 days, fold over controls; functionalized films incubated with 5.0 µg hBMP-2” value amounted to 12.7 fold; the “ALP production by C2C12, ratio to hBMP-2 nonspecifically adsorbed on native films” value is 2.4 fold; the “luciferase of BMP-2 reporter cell line (C2C12 Luc), fold increase; films incubated with 500 ng hBMP-2” value was 5.3 fold; the “luciferase of BMP-2 reporter cell line (C2C12 Luc, ID1 promoter), normalized to films without hBMP-2; films incubated with 500 ng hBMP-2” value is 10.4 fold (normalized luciferase). Also, the binding result in the test with endogenous BMP-2 (rat) is listed as “binds”.

B4: TGFB1 binding peptide KGLPLGNSH (peptide)
peptide: Ac-KGLPLGNSH-NH2
modifications: not fully specified (residue 1); also: lysine side chain covalently coupled to PCL film
Turning to B4, the “luciferase activity of TGFB1 reporter cell line (MLEC, PAI-1 promoter), fold over same films without hTGFB1 incubation” value with hTGFB1 (Peprotech) was 9 fold.
